Data as given in the supplement of paper PMC10567573.

B1: SETD8 (parent)
chain: FVVEYHGDLIEITDAKKREALYAQ
B2: TRIM35 (parent)
chain: WEVQVSPTCPVCKDRASPADLRTN

Variants of: B1
Assay: protein stability index of a GFP-peptide fusion (GPS, HEK-293T) (PSI 1-6); higher = more stable
Details: c terminus: a fixed tail appended
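Note: lentivirally expressed fusions sorted by FACS into six bins by GFP to DsRed ratio, PSI derived from sequencing read proportions per bin multiplied by bin number.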

Variant	protein stability index
F1L	1.85
F1K	3.65
F1V	2.5
F1P	4.46
F1Y	2.62
F1H	4.35
F1Q	4.63
F1I	2.37
F1E	4.75
F1S	4.43
F1A	4.23
F1D	4.46
F1R	3.74
F1N	4.78
F1M	2.71
F1T	4.14
F1G	4.8
F1C	3.3

Variants of: B2
Assay: as above
Details: c terminus: a fixed tail appended

Variant	protein stability index
A19L	2.12
A19K	2.96
A19Y	1.77
A19H	2.24
A19S	1.78
A19P	2.02
A19C	2.31
A19R	1.54
A19Q	2.31
A19F	2.99
A19T	1.75
A19N	1.91
A19D	3.38
A19E	3.35
A19W	2.3
A19G	2.24
A19I	2.05
A19M	2.42
D20P	1.85
D20I	1.47
D20V	1.97
D20L	2.15
D20C	1.91
D20E	2.95
D20Y	1.18

Variant	protein stability index
D20S	1.68
D20N	2.2
D20H	1.66
D20M	1.71
D20K	2.08
D20A	2.02
D20G	1.85
N24K	3.12
N24D	3.14
N24H	1.42
N24S	2.57
N24A	2.29
N24C	2.43
N24Q	2.81
N24E	2.29
N24F	1.55
N24L	1.71
N24P	2.47
N24I	1.7
N24R	2.74
N24M	1.55
N24Y	1.6
N24V	1.19
L21G	2.04
L21V	3.33

Variant	protein stability index
L21K	3.15
L21Q	2.5
L21Y	2.57
L21S	2.58
L21C	3.26
L21A	3.04
L21M	2.13
L21W	2.62
L21F	2
L21E	2.98
L21H	2.54
L21N	3.21
L21R	2.37
L21T	2.62
L21I	2.59
V11N	2.9
V11W	2.88
V11L	1.9
V11P	3.86
V11T	3.14
V11D	3.64
V11F	1.78
V11A	2.37
V11K	3.7
V11I	2.24

Variant	protein stability index
V11M	1.23
V11Y	1.51
V11H	1.96
V11S	1.79
V11R	2.93
V11Q	2.3
V11C	1.68
V11G	2.89
D14Y	1.62
D14F	2.81
D14E	2.75
D14I	1.93
D14L	2.62
D14C	1.03
D14Q	2.18
D14T	1.83
D14W	2.71
D14A	2.49
D14V	1.61
D14S	2.5
D14K	2.54
D14P	1.9
D14H	1.81
D14M	1.75
R22L	2.45

Variant	protein stability index
R22G	2.03
R22H	2.54
R22E	4.1
R22S	2.91
R22F	2.22
R22D	3.8
R22C	2.91
R22K	3.34
R22P	3.74
R22I	2.7
R22V	3.75
R22T	2.91
R22Q	3.33
R22Y	2.49
R22N	2.75
T23E	2.83
T23W	2.02
T23V	2.06
T23I	2.18
T23D	3.45
T23Q	2.58
T23F	1.82
T23L	3.09
T23H	2.93
T23N	2.74

Variant	protein stability index
T23K	3.12
T23S	2.26
T23A	2.28
T23P	2.08
T23C	2.13
T23M	2.5
T23Y	1.73
P7A	1.72
P7D	2.43
P7I	1.97
P7W	2.58
P7M	1.33
P7S	2.5
P7H	2.2
P7R	2.19
P7N	1.8
P7G	3.03
P7Q	2.43
P7T	1.58
P7Y	2.31
P7L	1.9
P7V	1.32
R15W	2.53
R15A	3.22
